Experimental data taken from US20160229903.

Columns and labels:
[1] = test system: VWF-052 (VWF D′D3-Fc with non-cleavable 48 amino acid long GS linker)
[2] = test system: VWF-055 (VWF D′D3-Fc with 34 amino acid long little a2 linker)
VWF-055 (VWF D′D3-Fc with 34 amino acid long little a2 linker), sequence (chain, as listed by the source): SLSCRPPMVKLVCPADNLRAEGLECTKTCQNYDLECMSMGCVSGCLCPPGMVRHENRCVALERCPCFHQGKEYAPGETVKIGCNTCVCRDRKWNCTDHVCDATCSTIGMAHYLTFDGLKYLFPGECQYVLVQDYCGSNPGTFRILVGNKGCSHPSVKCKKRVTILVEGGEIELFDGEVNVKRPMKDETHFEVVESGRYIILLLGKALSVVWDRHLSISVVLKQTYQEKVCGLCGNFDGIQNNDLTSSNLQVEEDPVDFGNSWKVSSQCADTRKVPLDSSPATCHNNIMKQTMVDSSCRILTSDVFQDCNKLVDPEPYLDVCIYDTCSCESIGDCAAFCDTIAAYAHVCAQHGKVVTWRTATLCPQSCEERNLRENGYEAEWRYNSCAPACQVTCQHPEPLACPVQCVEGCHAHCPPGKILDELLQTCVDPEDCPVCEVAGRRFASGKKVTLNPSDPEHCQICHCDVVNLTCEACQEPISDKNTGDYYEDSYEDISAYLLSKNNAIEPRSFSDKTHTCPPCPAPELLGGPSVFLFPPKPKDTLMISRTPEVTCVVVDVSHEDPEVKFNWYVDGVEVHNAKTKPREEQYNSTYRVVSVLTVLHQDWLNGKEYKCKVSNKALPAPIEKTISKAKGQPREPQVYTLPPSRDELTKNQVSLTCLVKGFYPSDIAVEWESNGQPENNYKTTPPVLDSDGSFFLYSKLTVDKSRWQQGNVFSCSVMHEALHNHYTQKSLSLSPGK

VWF-052 (VWF D′D3-Fc with non-cleavable 48 amino acid long GS linker), sequence (chain, as listed by the source): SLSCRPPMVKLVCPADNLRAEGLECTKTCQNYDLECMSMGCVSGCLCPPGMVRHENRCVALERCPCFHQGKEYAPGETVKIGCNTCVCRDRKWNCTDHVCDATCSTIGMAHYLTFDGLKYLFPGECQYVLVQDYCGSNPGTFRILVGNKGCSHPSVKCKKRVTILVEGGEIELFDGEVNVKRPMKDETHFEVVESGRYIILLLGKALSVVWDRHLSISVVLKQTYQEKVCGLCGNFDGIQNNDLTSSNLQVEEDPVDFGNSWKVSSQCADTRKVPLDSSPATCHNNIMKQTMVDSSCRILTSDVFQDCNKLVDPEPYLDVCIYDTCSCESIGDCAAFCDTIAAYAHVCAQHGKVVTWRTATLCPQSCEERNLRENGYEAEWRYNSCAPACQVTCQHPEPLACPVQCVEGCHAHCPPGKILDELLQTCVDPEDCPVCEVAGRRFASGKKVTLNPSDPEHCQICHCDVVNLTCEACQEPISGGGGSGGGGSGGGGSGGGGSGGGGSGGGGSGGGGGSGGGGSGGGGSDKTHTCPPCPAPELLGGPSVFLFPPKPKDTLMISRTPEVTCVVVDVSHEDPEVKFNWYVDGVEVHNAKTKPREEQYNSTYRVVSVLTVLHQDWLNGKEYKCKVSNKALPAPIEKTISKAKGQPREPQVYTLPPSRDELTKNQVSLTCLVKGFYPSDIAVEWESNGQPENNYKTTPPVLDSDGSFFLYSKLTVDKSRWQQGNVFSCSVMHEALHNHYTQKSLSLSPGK

human alpha-thrombin
thrombin cleavage (Biacore, release of D′D3 from captured construct) [1]: as expected is not cleaved by thrombin | thrombin cleavage (Biacore, release of D′D3 from captured construct) [2]: displayed similar thrombin cleavage as VWF-039 construct
